The results in this text go back to paper PMC3200309 (Cell, 2011).

Test [1] deals with scFv45 (conformation-sensor single chain variable fragment, purified from E. coli) (chicken). As to the kind of experiment: SPR. In general terms: In SPR one partner is held on a chip, and binding of the other changes the refractive index at the surface.
In test [2] the target is PTP1B-CASA mutant (C215A, S216A), PTP1B (1-321) (Homo sapiens, UniProt P18031, Cys215 to Ala | Ser216 to Ala). The test is described as follows: SPR.

B1: PTP1B-OX, PTP1B (1-321) reversibly oxidized with H2O2 (domain or fragment)
chain: MEMEKEFEQIDKSGSWAAIYQDIRHEASDFPCRVAKLPKNKNRNRYRDVSPFDHSRIKLHQEDNDYINASLIKMEEAQRSYILTQGPLPNTCGHFWEMVWEQKSRGVVMLNRVMEKGSLKCAQYWPQKEEKEMIFEDTNLKLTLISEDIKSYYTVRQLELENLTTQETREILHFHYTTWPDFGVPESPASFLNFLFKVRESGSLSPEHGPVVVHCSAGIGRSGTFCLADTCLLLMDKRKDPSSVDIKKVLLEMRKFRMGLIQTADQLRFSYLAVIEGAKFIMGDSSVQDQWKELSHEDLEPPPEHIPPPPRPPKRILEPHN
modifications: active site Cys215 reversibly oxidized (cyclic sulfenyl-amide: S of Cys215 linked to the main-chain N of Ser216)
Take B1: in test [1], the Kd was 46 nM and the koff came to 0.0023 s⁻¹.

B2: scFv45 (conformation-sensor single chain variable fragment, purified from E. coli) (scFv, V domains shown)
VH: TVTLDESGGGLQAPGGALSLVCKASGFTFSSYDMGWIRQAPGKGLEYVAGITDNGRYASYGSAVDGRATISRDNGQSSVRLQLNNLRAEDTGTYYCARDDGSGWTGNSIDAWGHGTEVIVSS
VL: LTQPSSVSANPGGTVKITCSGSSSAYGYGWYQQKSPGSAPVTVIYNNNKRPSNIPSRFSGSKSGSTGTLTITGVQAEDEAVYFCGSEDSSTDAIFGAGTTLTVL
Molecule B2 yielded a Kd in test [2] of 52 nM.

One may read the Kd as the free concentration of one partner at which half of the binding sites on the other are occupied at equilibrium, for simple one-to-one binding. A high value points to a looser complex. As usually defined, the koff is the first-order rate constant of dissociation. Higher therefore signals a short-lived complex.
